Results: US20240158785A1 (Chugai, published 2024)

T1: human IL-6 receptor (human, UniProt P08887 20-357, limits assumed, biotin-labeled in the ELISA and Octet assays (position not given))
T1 construct: also called hIL-6R; biotin-labeled hIL-6R
T1 sequence: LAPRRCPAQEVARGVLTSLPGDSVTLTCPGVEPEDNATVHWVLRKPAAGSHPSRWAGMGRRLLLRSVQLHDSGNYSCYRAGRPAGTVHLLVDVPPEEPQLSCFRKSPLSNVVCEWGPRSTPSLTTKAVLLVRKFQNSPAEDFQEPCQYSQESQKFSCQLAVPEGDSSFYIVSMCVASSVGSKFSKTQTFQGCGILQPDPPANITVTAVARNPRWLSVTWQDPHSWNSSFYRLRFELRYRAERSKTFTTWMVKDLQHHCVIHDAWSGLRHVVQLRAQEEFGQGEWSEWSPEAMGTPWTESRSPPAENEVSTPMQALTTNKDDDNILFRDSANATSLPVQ


Tests used:
human IL-6 receptor [1] = target: T1, human IL-6 receptor; experiment: SPR (Biacore T200), hIL-6R amine-coupled on CM5, antibody as analyte, equilibrium values, 1 mM ATP, 25 C; 1 mM ATP; Biacore, hIL-6R on CM5, antibody concentration series, 25 C
Experimental: The running buffer used was 20 mmol/L ACES, 150 mmol/L NaCl, 0.05% (w/v) Tween20, pH 7.4. The assay was performed at 25° C. hIL-6R was immobilized onto Sensor chip CM5 by amine coupling, and interacted with the antibodies as an analyte for 120 seconds to observe changes in the amount of binding. Antibodies were diluted with the running buffer or the running buffer added with any one of ATP, ADP, AMP, cAMP, and adenosine (ADO). The final concentration of each small molecule was adjusted to 1 mM, and the final concentration of the antibody was adjusted to 1 μM. Meanwhile, under the 1 mM ATP condition, the assay was carried out with a series of stepwise antibody concentrations. The dissociation constant KD (mol/L) of each clone for hIL-6R was calculated from a plot of equilibrium values against antibody concentration. The parameters were calculated using the Biacore T200 Evaluation Software (GE Healthcare).

human IL-6 receptor [2] = target: T1, human IL-6 receptor; experiment: ELISA: biotin-labeled hIL-6R on a streptavidin plate, purified IgG, absorbance 450 nm; with 1 mM kynurenine, tryptophan, phenylalanine, anthranilic acid, 3-hydroxykynurenine, kynurenic acid, or none (Table 14)
Experimental: The antigen used was biotin-labeled hIL-6R.
First, a StreptaWell 96 microtiter plate (Roche) was coated with 100 μL of PBS containing biotin-labeled antigens at room temperature for one hour or longer. […] 100 μL of each of the purified IgGs prepared at 2.5 μg/mL using Sample Buffer containing small molecules at the final concentrations shown in Table 14 were added to each well, and the plate was let still at room temperature for one hour to allow each IgG to bind to the antigen present in each well. After washing with Wash Buffer containing amino acids and amino acid metabolites at the final concentrations shown in Table 14, HRP-conjugated anti-human IgG antibody (BIOSOURCE) diluted with Sample Buffer containing amino acids and amino acid metabolites was added to each well, and the plate was incubated for one hour. After washing with Wash Buffer containing the respective amino acids and amino acid metabolites, the chromogenic reaction of TMB single solution (ZYMED) added in each well was terminated by adding sulfuric acid.

human IL-6 receptor [3] = target: T1, human IL-6 receptor; experiment: SPR (Biacore T200), antibody captured on protein A, hIL-6R as analyte, 100 µmol/L kynurenine, 25 C; 100 µmol/L kynurenine; Biacore, antibody captured, hIL-6R as analyte
Experimental: An appropriate amount of protein A (Invitrogen) was immobilized onto Sensor chip CM5 (GE Healthcare) by the amine coupling method. The antibody of interest was captured onto the sensor chip, and the antigen hIL-6R was allowed to interact. […] The interaction with the antigen hIL-6R was measured at 25° C. hIL-6R was diluted with the running buffer, the running buffer containing 100 μmol/L kynurenine, or, as a control, the running buffer containing 10 mmol/L ATP.
Then, the running buffer was run at a flow rate of 10 μL/min for one minute to observe the dissociation of hIL-6R from the antibody. Next, 10 mmol/L glycine-HCl, pH 1.5, was injected at a flow rate of 30 μL/min for 30 seconds to regenerate the sensor chip. […] Each parameter was calculated using Biacore T200 Evaluation Software (GE Healthcare).

human serum albumin = target: T2, human serum albumin (human, UniProt P02768 25-609, biotin-labeled antigen (position not given)); experiment: phage ELISA: biotin-labeled HSA on a streptavidin plate, purified Fab-displaying phage, HRP anti-M13 antibody, absorbance 450 nm; with or without 10 mM ATP and adenosine
T2 construct: also called HSA

Binder	Kd (human IL-6 receptor [1]) [nM]	further results
6RAD2C1-4_001 (antibody, human IgG1, lambda, V domains shown, also called 6RAD2C1-4_01) VH: EVQLVESGGDLVKPGGGLRLSCAASGFTFSGHTMNWVRQAPGKGLEWVSSISSRSNYIYYADSVKGRFTISRDNAKNSLYLQMNSLRAEDTAVYYCARYGRLHDRNWVFDYWGQGTLVTVSS VL: QSALTQPPSASGSPGQTVTISCTGTSTDVGDYNYVSWYQQHPGKAPKLMIYQVSKKPSGVPDRFSGSKSGNTASLTVSGLQAEDEADYFCSSRSYGAGVVFGGGTKLTVLG	300	
6RAD2C1-4_076 (antibody, human IgG1, lambda, V domains shown, also called 6RAD2C1-4_76) VH: EVQLVESGGDLVKPGGGLRLSCAASGFTFSGYTMNWVRQAPGKGLEWVSSISSRSSYIDYADSVKGRFTISRDNAKNSLYLQMNSLRAEDTAVYYCARYGALGQRNWVFDYWGQGTLVTVSS VL: QSALTQPPSASGSPGQTVTISCTGTSTDVGDYNYVSWYQQHPGKAPKLMIYQTSKRPSGVPDRFSGSKSGNTASLTVSGLQAEDEADYFCSSRSIKHPVFGGGTKLTVLG	250	
6RDL3C1-4_085 (antibody, human IgG1, lambda, V domains shown, also called 6RDL3C1-4_85) VH: EVQLVESGGDLVKPGGGLRLSCAASGFTFSGHTMNWVRQAPGKGLEWVSSISSRSNYIYYADSVKGRFTISRDNAKNSLYLQMNSLRAEDTAVYYCARYGRLHDRNWVFDYWGQGTLVTVSS VL: QSALTQPPSASGSPGQTVTISCTGTSTDVGDYNYVSWYQQHPGKAPKLMIYQVSKKPSGVPDRFSGSKSGNTASLTVSGLQAEDEADYFCSSRSYGAGVVFGGGTKLTVLG	390	
6RAD2C1-4_026 (antibody, human IgG1, lambda, V domains shown, also called 6RAD2C1-4_26) VH: EVQLVESGGDLVKPGGGLRLSCAASGFTFSGYTMNWVRQAPGKGLEWVSSISSRSNYAHYADSVKGRFTISRDNAKNSLYLQMNSLRAEDTAVYYCARYGRLGDRNWVFDYWGQGTLVTVSS VL: QSALTQPPSASGSPGQTVTISCTGTSTDVGAYNYVSWYQQHPGKAPKLMIYKVSKKPSGVPDRFSGSKSGNTASLTVSGLQAEDEADYFCSLRAATTGVLFGGGTKLTVLG	210	
6RAD2C1-4_011 (antibody, human IgG1, lambda, V domains shown, also called 6RAD2C1-4_11) VH: EVQLVESGGDLVKPGGGLRLSCAASGFTFSGHTMNWVRQAPGKGLEWVSSISSRSSYIYYADSVKGRFTISRDNAKNSLYLQMNSLRAEDTAVYYCARYGALGQMNWVFDYWGQGTLVTVSS VL: QSALTQPPSASGSPGQTVTISCTGTSTDVGDYNYVSWYQQHPGKAPKLMIYSVSKRPSGVPDRFSGSKSGNTASLTVSGLQAEDEADYFCSSRSSSMNVLFGGGTKLTVLG	230	
6RAD2C1-4_005 (antibody, human IgG1, lambda, V domains shown, also called 6RAD2C1-4_05) VH: EVQLVESGGDLVKPGGGLRLSCAASGFTFSTHTMNWVRQAPGKGLEWVSSISSRSSYIHYADSVKGRFTISRDNAKNSLYLQMNSLRAEDTAVYYCARFGKLGERNWVFDYWGQGTLVTVSS VL: QSALTQPPSASGSPGQTVTISCTGTSTDVGDYNYVSWYQQHPGKAPKLMIYQVSKKPSGVPDRFSGSKSGNTASLTVSGLQAEDEADYFCSVRSDGHGPMFGGGTKLTVLG	340	
GC413 (antibody, V domains shown, also called anti-human glypican 3 antibody GC413; negative control) VH: QVQLVQSGAEVKKPGASVKVSCKASGYTFTDYEMHWIRQPPGQGLEWIGAIDPKTGDTAYSQKFKGRVTLTADKSTSTAYMELSSLTSEDTAVYYCTRFYSYTYWGQGTLVTVSS VL: DIVMTQSPLSLPVTPGEPASISCRSSQSLVHSNRNTYLHWYQQKPGQAPRLLIYKVSNRFSGVPDRFSGSGSGTDFTLKISRVEAEDVGVYYCSQNTHVPPTFGQGTKLEIK		binding result (human IL-6 receptor [2]): no binding (tested: 2.5 µg/mL)
6RNMSC1-2_F02 (antibody, human IgG1, V domains shown, Variable region genes were inserted into a human IgG1/Kappa expression plasmid; also called clone 6RNMSC1-2_F02; antibody 6RNMSC1-2_F02) VH: QVQLVQSGAEVKKPGSSVKVSCKASGGTFSSYAISWVRQAPGQGLEWMGGIIPIFGTANYAQKFQGRVTITADESTSTAYMELSSLRSEDTAVYYCARDAPVVARPRGAFDIWGQGTMVTVSS VL: DIVMTQTPLSSPVTLGQPASISCRSSQSLVHSDGNTYLSWLQQRPGQPPRLLIHEISNRFSGVPDRFSGSGAGTNFTLKISRVEAEDVGVYYCMQATQFPRTFGQGTKVEIK		Kd (human IL-6 receptor [3]): 1500 nM
HSADSA1-6_020 (Fab, V domains shown, also called clone HSADSA1-6_020) VH: EVQLVESGGDLVKPGGGLRLSCAASGFTFSSHTMNWVRQAPGKGLEWVSSISSRSNHATYADSVKGRFTISRDNAKNSLYLQMNSLRAEDTAVYYCARFGKKGRYLWVFDYWGQGTLVTVSS VL: QSALTQPPSASGSPGQTVTISCTGTSSDVGDYNYVSWYQQHPGKAPKLMIYYVSKRPSGVPDRFSGSKSGNTASLTVSGLQAEDEADYFCSLTTDSLNPVFGGGTKLTVL		binding result (human serum albumin): binds
6RAD2C1-4_030 (antibody, human IgG1, lambda, V domains shown, also called 6RAD2C1-4_30) VH: EVQLVESGGDLVKPGGGLRLSCAASGFTFSSYTMNWVRQAPGKGLEWVSSISSRSGYAYYADSVKGRFTISRDNAKNSLYLQMNSLRAEDTAVYYCARFGALNTLNWVFDYWGQGTLVTVSS VL: QSALTQPPSASGSPGQTVTISCTGTSTDVGDYNYVSWYQQHPGKAPKLMIYQVSKKPSGVPDRFSGSKSGNTASLTVSGLQAEDEADYFCSTRTANAGVLFGGGTKLTVLG	330	
